The values that follow come from patent US20100015126A1, “Methods of Binding of Cross-Beta Structures By Chaperones” (priority 2006, published 2010).

One test addresses T1, human BiP (Homo sapiens, UniProt P11021).
T1 construct: The human BiP gene except the signal peptide encoding region was obtained from Geneart (Germany); linker […]; made in house; host or cells: HEK 293E cells, transient transfection, PABC674 vector; secreted into the medium
Briefly: ELISA: binding of BiP-FLAG-His to immobilized (misfolded) protein ligands. The settings on record: ligands coated at 5 μg/ml; 6BB peptides and oxLDL 50 μg/ml. The procedure, abridged:
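Ligands were coated at 5 μg/ml (50 μg/ml for 6BB# peptides and oxLDL) in 50 mM NaHCO3 pH 9.6, blocked, then incubated in triplicate with BiP-FLAG-His dilution series for 1 h at room temperature. Bound BiP was detected with peroxidase anti-FLAG M2 and TMB, stopped after 5 min and read at 450 nm. Buffer-only and chaperone-omitted background signals were subtracted.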
(An ELISA detects its analyte on a solid surface through an enzyme-linked reagent.)

In the next test the target is T2, factor XII in plasma (Homo sapiens, UniProt P00748).
T2 construct: from tissue; host or cells: plasma
T2 sequence (P00748 20-615): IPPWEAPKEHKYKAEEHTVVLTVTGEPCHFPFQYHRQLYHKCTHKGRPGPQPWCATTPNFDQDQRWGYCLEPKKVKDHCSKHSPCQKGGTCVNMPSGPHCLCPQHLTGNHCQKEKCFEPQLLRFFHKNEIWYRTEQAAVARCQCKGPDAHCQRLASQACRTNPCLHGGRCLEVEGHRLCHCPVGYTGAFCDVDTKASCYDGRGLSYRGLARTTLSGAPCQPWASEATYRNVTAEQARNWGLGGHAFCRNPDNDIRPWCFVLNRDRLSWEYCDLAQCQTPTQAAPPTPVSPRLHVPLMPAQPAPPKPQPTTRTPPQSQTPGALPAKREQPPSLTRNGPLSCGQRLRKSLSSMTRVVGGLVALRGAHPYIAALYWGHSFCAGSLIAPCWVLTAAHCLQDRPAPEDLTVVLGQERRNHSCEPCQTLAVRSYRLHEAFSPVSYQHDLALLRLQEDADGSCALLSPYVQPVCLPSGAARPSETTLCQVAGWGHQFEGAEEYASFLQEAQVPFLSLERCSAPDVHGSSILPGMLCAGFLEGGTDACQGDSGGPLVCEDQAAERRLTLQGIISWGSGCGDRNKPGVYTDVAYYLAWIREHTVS
Briefly: Factor XII activation assay (direct, substrate S-2222). The settings on record: chromogenic substrate S-2222. Format: biochemical. The procedure: Alternatively, activation of factor XII was assessed directly by omitting prekallikrein and using a factor XII chromogenic substrate, S-2222 (Chromogenix, Italy).

The subject of a further test is HUVECs. Put plainly: Adhesion of HUVECs to immobilized misfolded proteins under influence of BiP (LDH read-out). Format: cell-based, human. The settings on record: BiP approximately 200 μg/ml. The protocol:
HUVECs are primary endothelial cells (ECs), isolated from umbilical cords using 0.1% collagenase (Sigma, C0130, 100 mg, dissolved in 100 ml M199 medium supplemented with 10% FCS (Gibco 10106-169) and Penicillin-Streptomycin (P/S, Gibco, 15140-122)), according to widespread used standard procedures known to a person skilled in the art. HUVECs have the typical features of ECs, e.g. cobblestone morphology and von Willebrand factor storage in Weibel-Palade bodies. HUVECs can regularly be cultured up to passage 5; beyond passage 5 HUVECs loose typical EC markers. The isolation is described here in brief. The umbilical cord is washed for less than 3 minutes in ethanol and subsequently with PBS. The vein is connected to canules and flushed with 10 ml PBS, followed by loading with the 0.1% collagenase solution. After a 15 minute-incubation at 37° C., the detached endothelial cell suspension is recovered by flushing the vein with 10 ml medium which is subsequently added to the collagenase solution. The EC suspension is centrifuged for 5 minutes at room temperature, at low g-force. Supernatant is discarded and the cell pellet is resuspended in 5 ml ‘rich medium’ (EGM-2; Endothelial basal medium (EBM-2, Cambrex, CC-3156) and Singlequots containing supplements for endothelial cells (Cambrex, CC-4176)). Cells (passage 0, P0) are seeded in a culture flask coated with 0.5% gelatin (Sigma, G1393). To facilitate the adhesion of the endothelial cells, human fibronectin is added to the cell culture at a final concentration of 2 μg/ml. EC's are cultured at 37° C., at 5% CO2. The cell culture medium is refreshed every 2-3 days up to when the cells grow to confluency. Then, with the addition of trypsin-EDTA, the cells are detached from the flask, centrifuged at low g-force, resuspended in rich medium and seeded in larger 0.5% gelatin-precoated cell culture flasks.
In 96-wells plates (Immulon high-binding plates, Thermo Labsystems 3355) proteins, i.e. BSA-AGE, control BSA, IgIV Gammagard, crossbeta dIgIV-86 at 5 μg/ml, 10 μg/ml misfolded oxLDL, or gelatin (Sigma G1393, 2% solution in H2O or PBS, positive control for adhesion to ECs) were coated using 100 μl solutions, in six wells for each condition. Following incubation for 2 hours at 37° C. the solutions were discarded and the wells blocked for 1 hour at 37° C. with 100 μl/well of 1% polyvinyl-pyrrolidone (PVP, Sigma P5288) in PBS, filter (0.22 μm) sterilized. […] Subsequently, the block solution was discarded. Next, the plates were incubated with 40 μl RPMI 1640 medium (Gibco, 52400) and 10 μl of the potential inhibitor, i.e. recombinant human BiP at approximately 200 μg/ml final concentration. HUVECs were obtained by trypsinization. […] The absorbance at 490 nm was measured on a Versamax microplate reader at various time points.

T1 sequence (P11021 19-654): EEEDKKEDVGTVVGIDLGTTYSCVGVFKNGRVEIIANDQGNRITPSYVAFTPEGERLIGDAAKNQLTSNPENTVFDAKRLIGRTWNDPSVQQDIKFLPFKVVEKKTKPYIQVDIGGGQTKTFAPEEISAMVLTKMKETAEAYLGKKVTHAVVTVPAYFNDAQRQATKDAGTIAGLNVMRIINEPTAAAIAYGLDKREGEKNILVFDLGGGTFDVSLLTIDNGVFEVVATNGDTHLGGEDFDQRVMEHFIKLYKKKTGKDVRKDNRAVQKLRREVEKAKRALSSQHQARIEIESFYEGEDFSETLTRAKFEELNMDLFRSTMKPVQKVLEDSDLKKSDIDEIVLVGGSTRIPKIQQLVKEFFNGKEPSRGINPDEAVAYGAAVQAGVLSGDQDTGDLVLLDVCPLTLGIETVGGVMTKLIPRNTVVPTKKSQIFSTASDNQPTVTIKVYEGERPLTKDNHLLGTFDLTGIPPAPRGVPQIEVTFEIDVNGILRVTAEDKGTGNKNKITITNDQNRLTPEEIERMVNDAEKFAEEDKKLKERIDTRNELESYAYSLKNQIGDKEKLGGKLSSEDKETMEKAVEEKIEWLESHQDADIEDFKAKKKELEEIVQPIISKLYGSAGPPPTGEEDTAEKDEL

For the substance “KRLEVDIDIKIRS [FP13, synthetic fibrin fragment comprising crossbeta structure]”, the “Binding of concentration series of BiP to coated ligand” value with human BiP is “has been established”. In the test with factor XII in plasma, the “Activation of factor XII in plasma (conversion of S-2222)” value is listed as “stimulates the conversion of S-2222”. For the substance gelatin, the “Number of adhered HUVECs after preincubation of coated protein with BiP” value with HUVECs is on record as “hardly increase”.
